B1: GST-tagged Sch9 (GST-Sch9) [S. cerevisiae] / HA-tagged wild type Gap1 (HA-Gap1) [S. cerevisiae] (parent complex)
chain 1: MMNFFTSKSSNQDTGFSSQHQHPNGQNNGNNNSSTAGNDNGYPCKLVSSGPCASSNNGALFTNFTLQTATPTTAISQDLYAMGTTGITSENALFQMKSMNNGISSVNNNNSNTPTIITTSQEETNAGNVHGDTGGNSLQNSEDDNFSSSSTTKCLLSSTSSLSINQREAAAAAYGPDTDIPRGKLEVTIIEARDLVTRSKDSQPYVVCTFESSEFISNGPESLGAINNNNNNNNNNQHNQNQHINNNNENTNPDAASQHHNNNSGWNGSQLPSIKEHLKKKPLYTHRSSSQLDQLNSCSSVTDPSKRSSNSSSGSSNGPKNDSSHPIWHHKTTFDVLGSHSELDISVYDAAHDHMFLGQVRLYPMIHNLAHASQHQWHSLKPRVIDEVVSGDILIKWTYKQTKKRHYGPQDFEVLRLLGKGTFGQVYQVKKKDTQRIYAMKVLSKKVIVKKNEIAHTIGERNILVTTASKSSPFIVGLKFSFQTPTDLYLVTDYMSGGELFWHLQKEGRFSEDRAKFYIAELVLALEHLHDNDIVYRDLKPENILLDANGNIALCDFGLSKADLKDRTNTFCGTTEYLAPELLLDETGYTKMVDFWSLGVLIFEMCCGWSPFFAENNQKMYQKIAFGKVKFPRDVLSQEGRSFVKGLLNRNPKHRLGAIDDGRELRAHPFFADIDWEALKQKKIPPPFKPHLVSETDTSNFDPEFTTASTSYMNKHQPMMTATPLSPAMQAKFAGFTFVDESAIDEHVNNNRKFLQNSYFMEPGSFIPGNPNLPPDEDVIDDDGDEDINDGFNQEKNMNNSHSQMDFDGDQHMDDEFVSGRFEI
chain 2: MSNTSSYEKNNPDNLKHNGITIDSEFLTQEPITIPSNGSAVSIDETGSGSKWQDFKDSFKRVKPIEVDPNLSEAEKVAIITAQTPLKHHLKNRHLQMIAIGGAIGTGLLVGSGTALRTGGPASLLIGWGSTGTMIYAMVMALGELAVIFPISGGFTTYATRFIDESFGYANNFNYMLQWLVVLPLEIVSASITVNFWGTDPKYRDGFVALFWLAIVIINMFGVKGYGEAEFVFSFIKVITVVGFIILGIILNCGGGPTGGYIGGKYWHDPGAFAGDTPGAKFKGVCSVFVTAAFSFAGSELVGLAASESVEPRKSVPKAAKQVFWRITLFYILSLLMIGLLVPYNDKSLIGASSVDAAASPFVIAIKTHGIKGLPSVVNVVILIAVLSVGNSAIYACSRTMVALAEQRFLPEIFSYVDRKGRPLVGIAVTSAFGLIAFVAASKKEGEVFNWLLALSGLSSLFTWGGICICHIRFRKALAAQGRGLDELSFKSPTGVWGSYWGLFMVIIMFIAQFYVAVFPVGDSPSAEGFFEAYLSFPLVMVMYIGHKIYKRNWKLFIPAEKMDIDTGRREVDLDLLKQEIAEEKAIMATKPRWYRIWNFWC
B2: GST-tagged Sch9 (GST-Sch9) [S. cerevisiae] / Gap1 peptide 222-GVKGYGEAEFVFSFI-236 [S. cerevisiae] (parent complex)
chain 1: B1 chain 1
chain 2: GVKGYGEAEFVFSFI

Variants of: B1
Assay: GST pull-down assay; parent: 100

Row | Variant | percent of parent
1 | chain 2 V232K | 86.9 % of Gap1WT
2 | chain 2 F231D, chain 2 V232K, chain 2 F233D | 102 % of Gap1WT
3 | chain 2 F233D | 138 % of Gap1WT
4 | chain 2 F231D | 98.9 % of Gap1WT

Variants of: B2
Assay: substitution peptide microarray; 100 or 500 µg/ml GST-Sch9; parent: 100; read off a plot

Row | Variant | percent of parent
5 | chain 2 GVKGYFEAEFVFSFI [chain 2 G6F] | ~330 % of wild type peptide
6 | chain 2 GVKGYGEAEFVFCFI [chain 2 S13C] | ~240 % of wild type peptide
7 | chain 2 FVKGYGEAEFVFSFI [chain 2 G1F] | ~140 % of wild type peptide
8 | chain 2 GVKGYGEAEFVFSFE [chain 2 I15E] | ~150 % of wild type peptide
